Reference: patent US20180339041A1 (Kyowa Kirin, published 2018)
Blank lines part the entries; values can stand above or below the binder they belong to.

How the values were obtained:
[1] = molecular target: T1, hGas6-FH-L314A, Q315A, P316A (alanine substitution variant) (human, UniProt Q14393 1-678); test: ELISA, variant captured by anti-FLAG, biotinylated antibody
T1 construct: Limits of the deletion derived as for hGas6-FH; also called alanine variant
T1 chain: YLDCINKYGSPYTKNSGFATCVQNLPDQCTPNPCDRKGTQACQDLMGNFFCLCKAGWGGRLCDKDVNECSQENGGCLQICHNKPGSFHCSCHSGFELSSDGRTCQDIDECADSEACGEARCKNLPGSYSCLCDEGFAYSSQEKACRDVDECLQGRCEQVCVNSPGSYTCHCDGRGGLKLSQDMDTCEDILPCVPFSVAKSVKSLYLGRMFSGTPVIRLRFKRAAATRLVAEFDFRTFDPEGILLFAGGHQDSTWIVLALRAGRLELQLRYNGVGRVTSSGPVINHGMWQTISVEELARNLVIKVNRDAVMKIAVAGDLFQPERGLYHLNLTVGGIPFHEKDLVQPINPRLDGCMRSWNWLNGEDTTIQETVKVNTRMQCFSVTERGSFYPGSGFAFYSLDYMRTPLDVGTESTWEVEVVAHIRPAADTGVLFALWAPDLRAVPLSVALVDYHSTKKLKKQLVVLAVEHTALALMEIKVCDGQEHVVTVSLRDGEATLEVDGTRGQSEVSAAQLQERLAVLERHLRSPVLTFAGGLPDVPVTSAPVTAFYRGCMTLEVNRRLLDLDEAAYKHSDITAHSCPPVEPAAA
Method: First, 2 μg/mL anti-FLAG antibody [Monoclonal ANTI-FLAG M2 antibody produced in mouse (manufactured by Sigma-Aldrich Co. LLC) diluted with PBS (manufactured by Nacalai Tesque, Inc.)] was dispensed at 50 μL/well to a 96-well plate for ELISA (manufactured by Nalge Nunc International), and the plate was left standing overnight at 4° C. for adsorption. After removal of the immobilization solution, 1% BSA-PBS (manufactured by Nacalai Tesque, Inc.) was added thereto at 300 μL/well, and the plate was left standing at room temperature for 1 hour for blocking and washed five times with Tween 20-PBS (manufactured by Wako Pure Chemical Industries Ltd.).
Each antibody solution was dispensed thereto at 50 μL/well, and the plate was left standing at room temperature for 1 hour. This plate was washed five times with Tween 20-PBS. Then, Streptavidin HRP Conjugate (manufactured by R&D Systems, Inc.) diluted 200-fold with 1% BSA-PBS was dispensed thereto at 50 μL/well, and the plate was left standing at room temperature for 1 hour. This plate was washed five times with Tween 20-PBS, and TMB (manufactured by Sigma-Aldrich Co. LLC) was added thereto at 50 μL/well and reacted. […] The absorbance at a sample wavelength of 450 nm and a reference wavelength of 570 nm (450 nm-570 nm) was measured using a plate reader.

[2] = molecular target: T2, C-terminally FLAG-tagged human Gas6 recombinant protein (hGas6-F) (human, UniProt Q14393 31-678, gamma-carboxylated glutamic acid residues in the Gla domain (producer cells co-express rat VKOR and human GGCX); positions not given); test: SPR Biacore T100, captured antibody, Gas6 analyte, first test
T2 construct: also called human Gas6-F; human Gas6 protein
T2 sequence: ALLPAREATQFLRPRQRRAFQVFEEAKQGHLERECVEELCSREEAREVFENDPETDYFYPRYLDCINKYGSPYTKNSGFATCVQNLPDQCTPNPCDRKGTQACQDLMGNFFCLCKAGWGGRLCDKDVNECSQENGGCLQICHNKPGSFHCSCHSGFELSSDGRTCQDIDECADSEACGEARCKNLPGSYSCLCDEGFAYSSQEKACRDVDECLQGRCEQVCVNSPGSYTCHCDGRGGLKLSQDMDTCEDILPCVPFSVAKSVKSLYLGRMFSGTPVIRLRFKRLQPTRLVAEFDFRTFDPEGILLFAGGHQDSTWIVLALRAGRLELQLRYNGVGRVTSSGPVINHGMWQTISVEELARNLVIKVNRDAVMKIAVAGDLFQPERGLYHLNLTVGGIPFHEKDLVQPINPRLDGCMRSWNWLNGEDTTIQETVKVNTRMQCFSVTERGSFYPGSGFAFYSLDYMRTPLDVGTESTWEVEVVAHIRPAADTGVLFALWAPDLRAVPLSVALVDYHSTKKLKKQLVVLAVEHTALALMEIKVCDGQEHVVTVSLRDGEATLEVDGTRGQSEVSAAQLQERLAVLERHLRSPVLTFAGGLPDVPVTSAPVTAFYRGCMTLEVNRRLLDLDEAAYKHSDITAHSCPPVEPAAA
Method: The measurement instrument used was Biacore® T100 (manufactured by GE Healthcare Japan Corp.).
(§1) An anti-human IgG antibody was immobilized on a CM5 sensor chip (manufactured by GE Healthcare Japan Corp.) using Human Antibody Capture Kit (manufactured by GE Healthcare Japan Corp.) according to the attached manual. Each test antibody adjusted to 1 μg/mL was added for 10 seconds at a flow rate of 10 μL/min to flow cells. […] The measurement was performed by the […] method. The obtained sensorgram was analyzed using Bia Evaluation Software (manufactured by GE Healthcare Japan Corp.), and the kinetic constant of each antibody was calculated.

[3] = molecular target: T2, C-terminally FLAG-tagged human Gas6 …; test: as above; remark: listed apart in the source
Method: as §1

[4] = molecular target: T2, C-terminally FLAG-tagged human Gas6 …; test: ELISA, Gas6-F captured by anti-FLAG, biotinylated antibody
Method: After removal of the immobilization solution, 1% BSA-PBS (manufactured by Nacalai Tesque, Inc.) was added thereto at 300 μL/well, and the plate was left standing at room temperature for 1 hour for blocking and washed five times with Tween 20-PBS (manufactured by Wako Pure Chemical Industries Ltd.).
Each antibody solution was dispensed thereto at 50 μL/well, and the plate was left standing at room temperature for 1 hour. This plate was washed five times with Tween 20-PBS. Then, Streptavidin HRP Conjugate (manufactured by R&D Systems, Inc.) diluted 200-fold with 1% BSA-PBS was dispensed thereto at 50 μL/well, and the plate was left standing at room temperature for 1 hour. This plate was washed five times with Tween 20-PBS, and TMB (manufactured by Sigma-Aldrich Co. LLC) was added thereto at 50 μL/well and reacted. At an appropriate point in time, the reaction was terminated by the addition of 1 N hydrochloric acid (manufactured by Wako Pure Chemical Industries Ltd.) at 50 μL/well. The absorbance at a sample wavelength of 450 nm and a reference wavelength of 570 nm (450 nm-570 nm) was measured using a plate reader.

[5] = molecular target: T3, human protein S (derived from human serum; Enzyme Research Laboratories) (human, UniProt P07225 42-676); test: ELISA: human protein S coated directly on the plate (2 µg/mL); biotinylated test antibody; streptavidin-HRP/TMB (Example 6, method of Example 5(5)) [F]
T3 construct: Homologue of Gas6 used as specificity control
T3 sequence (looked up): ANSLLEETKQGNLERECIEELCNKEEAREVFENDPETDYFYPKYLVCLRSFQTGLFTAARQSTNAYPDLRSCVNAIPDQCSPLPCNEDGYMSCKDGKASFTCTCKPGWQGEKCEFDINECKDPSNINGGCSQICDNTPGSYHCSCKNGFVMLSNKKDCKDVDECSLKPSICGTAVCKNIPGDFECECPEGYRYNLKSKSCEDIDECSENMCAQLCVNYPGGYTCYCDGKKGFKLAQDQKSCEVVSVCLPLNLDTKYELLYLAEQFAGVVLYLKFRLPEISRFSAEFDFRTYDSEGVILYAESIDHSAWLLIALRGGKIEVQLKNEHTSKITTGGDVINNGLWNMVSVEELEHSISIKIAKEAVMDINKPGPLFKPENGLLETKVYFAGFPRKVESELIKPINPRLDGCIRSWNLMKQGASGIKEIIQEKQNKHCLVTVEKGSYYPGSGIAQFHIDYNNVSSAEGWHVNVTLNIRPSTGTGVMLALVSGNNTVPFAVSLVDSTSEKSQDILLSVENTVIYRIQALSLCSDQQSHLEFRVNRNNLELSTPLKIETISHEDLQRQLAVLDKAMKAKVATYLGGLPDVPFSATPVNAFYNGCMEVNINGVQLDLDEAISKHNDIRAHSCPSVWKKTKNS
Method: First, a 2 μg/mL solution of the antigen (prepared from each antigen with PBS (manufactured by Nacalai Tesque, Inc.)) was dispensed at 50 μL/well to a 96-well plate for ELISA (manufactured by Nalge Nunc International), and the plate was left standing overnight at 4° C. for adsorption. The plate was washed five times with Tween 20-PBS. Then, 1% BSA-PBS (manufactured by Nacalai Tesque, Inc.) was added thereto at 300 μL/well, and the plate was left standing at room temperature for 1 hour for blocking and washed five times with Tween 20-PBS (manufactured by Wako Pure Chemical Industries Ltd.). Next, the hybridoma culture supernatant was dispensed thereto as a test substance at 50 μL/well, and the plate was left standing at room temperature for 1 hour and then washed five times with Tween 20-PBS. Next, polyclonal goat anti-mouse immunoglobulins/HRP (Dako Denmark A/S, P0447) diluted 2000-fold with 1% BSA-PBS was dispensed thereto at 50 μL/well, and the plate was left standing at room temperature for 1 hour. The plate was washed five times with Tween 20-PBS, and TMB (manufactured by Sigma-Aldrich Co. LLC) was added thereto at 50 μL/well and reacted. At an appropriate point in time, the reaction was terminated by the addition of 1 N hydrochloric acid (manufactured by Wako Pure Chemical Industries Ltd.) at 50 μL/well. The absorbance at a sample wavelength of 450 nm and a reference wavelength of 570 nm (450 nm-570 nm) was measured using a plate reader (Spectra Max, manufactured by Molecular Devices, LLC).
The binding activity of the obtained antibodies against human protein S was measured in the same way as in Example 5(5). […] The secondary detection reagent used was Streptavidin HRP Conjugate (manufactured by R&D Systems, Inc.) diluted 200-fold with 1% BSA-PBS.

B2: hzKM5321 LV0HV0 antibody (antibody, V domains shown)
VH: QVHLVQSGSELKKPGASVKISCKASGYTFTNYGMNWVRQAPGQGLEWMGWINTNTGEPTYTEEFKGRFVFSLDTSVTTSYLQISTLKAEDTAVYFCARDEGWFVYWGQGTLVTVSS
VL: ETTLTQSPSSLSASVGDRVTITCITSTDIDDDMNWYQQKPGKAPKLLISEGNTLRPGVPSRFSGSGSGTDFTLTISSLQPEDFATYYCLQTDSVPLTFGQGTKVEIK
notes: Humanized; variant human IgG4 constant region (EU S228P, L235E, R409K), human kappa; also called B-02; LV0HV0
fold increase of KD against the KM5321 chimeric antibody [2]: ~3 fold
fold increase of kd against the KM5321 chimeric antibody [2]: ~3 fold
Kd [3]: < 3.57 nM
koff [3]: 0.000468 s⁻¹
kon [3]: > 131000 M⁻¹ s⁻¹

B3: CNTO antibody (anti-Gas6 monoclonal antibody WG1 of U.S. Pat. No. 7,547,767, remade) (antibody, V domains shown)
VH: QVQLVESGGGVVQPGRSLRLSCAASGFTFSSYGMHWVRQAPGKGLEWVAVIWYDGSNKYYADSVKGRFTISRDNSKNTLYLQMNSLRAEDTAMYFCAREGFYYDILTAYSLEYFQHWGQGTLVTVSS
VL: EIVLTQSPDFQSVTPKEKVTITCRASQSIGSSLHWYQQKPDQSPKLLIKYASQSFSGVPSRFSGSGSGTDFTLTINSLEAEDAAAYYCHQSSSLPYTFGQGTKLEIK
notes: Expressed from vector pKANTEX93 in CHO; also called CNT0300
antibody concentration at which binding activity was detected [4]: 0.04 µg/mL
binding activity at 5 µg/mL against the largest activity of KM5320-mKG1 and KM5321-mKG1 [4]: < 0.5 fold
binding result [5]: no binding (tested: 5 µg/mL)

Now from value to binder:

binding result [1]: no binding
B1: anti-human Gas6 mouse-rat chimeric antibody KM5321-rKG1 (antibody, V domains shown)
VH: QIQLVQSGPELKKPGETVKISCRASGYTFTNYGMNWVKQAPGKGLKWMGWINTNTGEPTYTEEFKGRFAFSLETSATTAYLQINDLKNEDTATYFCARDEGWFVYWGQGTLITVSA
VL: ETTVTQSPASLSVATGEKVTIRCITSTDIDDDMNWYQQKPGEPPKLLISEGNTLRPGVPSRFSSSGYGTDFVFTIENTLSEDVADYYCLQTDSVPLTFGAGTKLELK
notes: 96 and 98 are not tied in words; also called KM5321-rKG1 antibody

binding result [1]: no binding
B4: anti-human Gas6 mouse-rat chimeric antibody KM5320-rKG1 (antibody, V domains shown)
VH: QIQLVQSGPELKKPGETVKISCKASGYTFTNYGMNWVKQAPGKGLKWMGWINTETGEPTYSDDFKGRFAFSLETSATTAYLQINNLRNEDMATYFCAREDGYYGTLDYWGQGTSVTVSS
VL: SIVMTQTPKFLLVSAGDRVTITCKASQSVSNDVAWYQQKPGQSPKVLIYYASNRYTGVPDRFTGSGYGTDFTFTISTVQAEDLAVYFCQQDYSSPWTFGGGTKLEIK
notes: 92 and 94 are not tied in words; also called KM5320-rKG1 antibody
